Results on two compounds are retold here after patent US12605539B2, “Methods and systems for delivering drugs through skin of a body” (PASSPORT TECHNOLOGIES, INC., priority 2019, dated 2026).

Data set [1] is described as follows: Blood concentration of long-acting peptide (Semaglutide) after microporation patch, Sub Q or oral administration. It counts as in vivo, hairless Guinea pigs. An excerpt:
Table 1 below provides data of three groups of microporation values used to create pathways in the skin in hairless Guinea pigs before applying the patch 102 containing a long-acting peptide once weekly, for example Semaglutide. Table 2 below provides data of six (6) groups of drug administration: three (3) groups for the patch 102, one (1) group for oral administration of the long-acting peptide, and two (2) groups for injected administration of the long-acting peptide.
Groups 1-3 in Tables 1 and 2 correspond to combinations of patches 102 and the microporation parameters for a particular administration. For example, the group 1 microporation parameters of Table 1 apply in conjunction with the administration of the patch 102 according to the parameters in Group 1 of Table 2. Accordingly, the patch 102 of group 1 has the nonwoven matrix, water holding material thickness of 38 μm, water holding material weight of 12 g/m^2, and WHC of […]. The patch 102 of group 1 includes a drug of 1 mg and a total solid weight of 3.25 mg with an area of 0.5 cm^2. This patch 102 is applied to an area of the skin having 200 pathways created according to the group 1 microporation parameters, where the energy applied to the microporation device is 5.2 mJ/filament, the filaments 200 are made from stainless steel and have a treated area of 10% per square centimeter of skin, where the filaments 200 treat an area of 0.5 cm^2. Similarly, group 2 of the patch 102 parameters applies to group 2 of the microporation parameters and group 3 of the patch 102 parameters applies to group 3 of the microporation parameters.
The graph 1000 includes the concentration of the long-acting peptide in nanograms/milliliter (ng/mL) along the y-axis and time in hours (hr) along the x-axis. […] The line 1002 represents the group 1 microporation parameters and the group 1 patch 102 parameters. The line 1004 represents the group 2 microporation parameters and the group 2 patch 102 parameters. The line 1006 represents the group 3 microporation parameters and the group 3 patch 102 parameters. Each of the three lines 1002, 1004, and 1006 follow the same general trend. For each of the groups 1-3 of parameters, the concentrations of the long-acting peptide generally increase to a maximum concentration relatively quickly before gradually lessening, finally reaching a concentration of 0.
The graph 1020 includes the concentration of the long-acting peptide in nanograms/milliliter (ng/mL) along the y-axis and time in hours (hr) along the x-axis. […] The line 1022 represents the group 4 injected drug. The line 1024 represents the group 5 injected drug. The line 1026 represents the group 6 […] drug. Each of the lines 1022 and 1024 follow the same general trend, rising to a highest level of concentration before gradually falling and approaching a concentration level of 0. […] The parameters of group 5 are shown by line 1024 to have a higher concentration level spike for the duration of the bioavailability of the long-acting polypeptide in the body as compared to the parameters of group 4 shown by line 1022.
The graph 1040 is zoomed out view of the graph 1000, giving a higher level view of the relationships of the lines 1002, 1004, and 1006. Similarly, the graph 1060 is a zoomed out view of the graph 1020, showing that the line 1026 (oral consumption of the long-lasting peptide) hovers around a concentration of 10 ng/mL and is not 0, as it appears from the graph 1020.
Based on the graphs 1000, 1020, 1040, and 1060, the area under the curve for each of groups 1-6 is shown below in Table 3: […]

Data set [2] is described as follows: Blood concentration of long-acting protein (Etanercept) after patch with or without microporation or Sub Q. In kind it is in vivo, rats. An excerpt: Table 4 below provides data of one group (group 1) of a patch 102 containing a long-acting protein, for example Etanercept, applied without any microporation, three groups (groups 2-4) of microporation values for use with patches 102, and one group (group 5) of injected administration of the long-acting protein. Table 6 below provides details of the components of the patch or drug formulation administered according to the groups 1-5.
The graph 1100 includes the concentration of the long-acting protein in nanograms/milliliter (ng/mL) along the y-axis and time in hours (hr) along the x-axis. […] The line 1102 represents the group 1 patch 102 with no microporation. The line 1104 represents the group 2 microporation parameters and the group 2 patch 102 parameters. The line 1106 represents the group 3 microporation parameters and the group 3 patch 102 parameters. The line 1108 represents the group 4 microporation parameters and the group 4 patch 102 parameters. The line 1110 represents the injected long-acting protein. Each of the three lines 1104, 1106, and 1108 follow the same general trend. For each of the groups 2-4 of parameters, the concentrations of the long-acting protein generally increase to a maximum concentration relatively quickly before gradually lessening, finally reaching a concentration of 0. The parameters of groups 3 and 4 are shown by line 1106 and 1108 to have the highest concentration level spike while the group 4 parameters result in the higher long term concentration. The parameters of group 2 are shown by line 1104 to have a generally lower concentration levels throughout as compared to the groups 3 and 4 parameters. The group 1 and group 5 administrations are lower than all of the group 2-4 administrations. Thus, for the long-acting protein, the patch administration at skin locations treated with microporation result in better bioavailabilities than even the injected administration of the drug, as detailed in Table 7 below. The graphs 1100 and 1120 also show what effects the additional components in the drug formulation (for example, sucrose, urea, and so forth) may have on the bioavailability and blood concentrations of the long-acting protein in rats.
Based on the graphs 1100 and 1120, the area under the curve for each of groups 1-5 is shown above in Table 7. […] The administrations using the patches 102 with the different microporation parameters are shown to result in the greatest concentration levels of the drug available for the longest durations.

Data set [3] in a line: Blood concentration of long-acting protein (Etanercept), patch matrix comparison (Tables 8-10, FIG. 12). It counts as in vivo, rats. To be noted: for peak concentration: 5.0 mg + sucrose 10 mg, 400 pores, 5.2 mJ/filament. From the text: Table 8 below provides data of two groups (groups 1 and 2) of microporation values for use with a patch 102 containing a long-acting protein, for example Etanercept. Table 10 below provides details of the components of the patch or drug formulation administered according to the groups 1 and 2. As shown, both groups have the same drug formulation of the long-acting protein and sucrose in the same quantities.
The graph 1200 includes the concentration of the long-acting protein in nanograms/milliliter (ng/mL) along the y-axis and time in hours (hr) along the x-axis. […] The line 1202 represents the group 1 patch 102 with microporation parameter according to Table 8 and patch 102 parameters according to Table 9. The line 1204 represents the group 2 patch 102 with microporation parameter according to Table 8 and patch 102 parameters according to Table 9. The two lines 1202 and 1204 follow different trends. The line 1202 spikes quickly to a peak of above 800 ng/mL and then remains generally between 500 and 700 ng/mL until at least about 70 hours. […] This highlights the effects that the patch 102 parameters can have on the administration of the drug formulation.

The mark [4] stands for this setting: group 1: patch 5.0 mg + sucrose 5 mg, without microporation.
Where [5] appears, read: group 2: patch 5.0 mg + sucrose 5 mg, 400 pores, 5.2 mJ/filament.
[6] abbreviates: group 3: patch 5.0 mg + sucrose 5 mg + urea 5 mg, 400 pores, 5.2 mJ/filament.
[7] abbreviates: group 4: patch 5.0 mg + sucrose 5 mg + disodium citrate 5 mg, 400 pores, 5.2 mJ/filament.

In the case of `CC[C@H](C)[C@H](NC(=O)[C@H](Cc1ccccc1)NC(=O)[C@H](CCC(=O)O)NC(=O)[C@H](CCCCNC(=O)COCCOCCNC(=O)COCCOCCNC(=O)CC[C@H](NC(=O)CCCCCCCCCCCCCCCCC(=O)O)C(=O)O)NC(=O)[C@H](C)NC(=O)[C@H](C)NC(=O)[C@H](CCC(N)=O)NC(=O)CNC(=O)[C@H](CCC(=O)O)NC(=O)[C@H](CC(C)C)NC(=O)[C@H](Cc1ccc(O)cc1)NC(=O)[C@H](CO)NC(=O)[C@H](CO)NC(=O)[C@@H](NC(=O)[C@H](CC(=O)O)NC(=O)[C@H](CO)NC(=O)[C@@H](NC(=O)[C@H](Cc1ccccc1)NC(=O)[C@@H](NC(=O)CNC(=O)[C@H](CCC(=O)O)NC(=O)C(C)(C)NC(=O)[C@@H](N)Cc1cnc[nH]1)[C@@H](C)O)[C@@H](C)O)C(C)C)C(=O)N[C@@H](C)C(=O)N[C@@H](Cc1c[nH]c2ccccc12)C(=O)N[C@@H](CC(C)C)C(=O)N[C@H](C(=O)N[C@@H](CCCNC(=N)N)C(=O)NCC(=O)N[C@@H](CCCNC(=N)N)C(=O)NCC(=O)O)C(C)C` [Semaglutide], the BA in data set [1] (group 1: patch 1 mg (2 mg/cm^2), 0.5 cm^2, 200 pores, 5.2 mJ/filament) was 63.6%; in data set [1] (group 2: patch 2 mg (2 mg/cm^2), 1.0 cm^2, 400 pores, 5.2 mJ/filament), 47.0%; in data set [1] (group 3: patch 4 mg (2 mg/cm^2), 2.0 cm^2, 800 pores, 5.2 mJ/filament) it was 31.8%; in data set [1] (group 4: Sub Q 0.5 mg) it was 81.8%; in data set [1] (group 5: Sub Q 1.0 mg), 100.0%; in data set [1] (group 6: Oral 2.0 mg) it was 0.0%.
Regarding Etanercept, the AUC in data set [2] (setting [4]) was found to be 0.172 µg·h/mL; in data set [2] (setting [5]), 208.5929 µg·h/mL; in data set [2] (setting [6]) it was 604.0884 µg·h/mL; in data set [2] (setting [7]), 712.8251 µg·h/mL; in data set [2] (group 5: Sub Q 1.0 mg), 121.5723 µg·h/mL. In addition, the BA is 0.0% in data set [2] (setting [4]); 94.3% in data set [2] (setting [5]); 99.4% in data set [2] (setting [6]); 117.2% in data set [2] (setting [7]); 100.0% in data set [2] (group 5: Sub Q 1.0 mg). The maximum concentration (Cmax) in data set [2] (setting [4]) worked out at 9.6 ng/mL; in data set [2] (setting [5]) it was 5189.0 ng/mL; in data set [2] (setting [6]), 16578.6 ng/mL; in data set [2] (setting [7]) it was 16982.4 ng/mL; in data set [2] (group 5: Sub Q 1.0 mg), 1298.7 ng/mL. Further, the peak concentration entry in data set [3] (group 1: matrix 38 μm, 12 g/m^2, WHC 4 mg/cm^2) is reported as “above 800 ng/mL”; in data set [3] (group 2: matrix 336 μm, 50 g/m^2, WHC 30 mg/cm^2) it was “about 275 ng/mL”. In addition, the “concentration at about 70 hours” value in data set [3] (group 2 (WHC 30 mg/cm^2)) is recorded as “below 100 ng/mL”. For the same compound, in data set [3] (group 2 (WHC 30 mg/cm^2)), the “time of peak concentration” value is listed as “about 32 hours”.

The term AUC denotes the area under the concentration-time curve, a measure of exposure. Usually Cmax stands for the peak of the concentration-time curve.
